# Assay results as given in patent US20120107932A1 (published 2012).
# Biological target: PRRS virus (PRRSV)
# Experiment: cell-based or functional assay
row,Binder,"CPE caused by PRRSV on Marc-145 and PAM cells, blocker at 1 µg/well ('++' means CPE in 50% cells) [% cells with CPE]"
1,GAGDGSDEE [NMHC II-A artificial polypeptide (Seq ID No: 2)],50
2,GAGDGSDEEVDGKA [NMHC II-A artificial polypeptide (Seq ID No: 3)],50
3,KADGAEAKPAE [NMHC II-A artificial polypeptide (Seq ID No: 4)],50
